# Starred links: 1 amine or outer side, 2 acyl side, 3 side chain; linkers in the order of their positions; H or OH if unused. Positions of bridges follow the written chain, without caps; N, C: chain ends. Non-standard residues stand in square brackets, D forms with d. No end group written: not given here. *: point of attachment. Cys(Me) = S-methylcysteine (source: C(Me)), CSC[C@H](N[*:1])C(=O)[*:2]; Tyr(Me) = O-methyltyrosine, COc1ccc(C[C@H](N[*:1])C(=O)[*:2])cc1; Phe(4-NO2) = N[C@@H](Cc1ccc([N+](=O)[O-])cc1)C(=O)O; Phe(4-CONH2) = NC(=O)c1ccc(C[C@H](N)C(=O)O)cc1; Phe(4-CN) = N#Cc1ccc(C[C@H](N)C(=O)O)cc1; Phe(4-NH2) = Nc1ccc(C[C@H](N)C(=O)O)cc1; Phe(4-F) = N[C@@H](Cc1ccc(F)cc1)C(=O)O; dPhe(4-F) = N[C@H](Cc1ccc(F)cc1)C(=O)O; 2Nal = N[C@@H](Cc1ccc2ccccc2c1)C(=O)O; NMeY = CN[C@@H](Cc1ccc(O)cc1)C(=O)O; dNMeY = CN[C@H](Cc1ccc(O)cc1)C(=O)O; Chg = N[C@H](C(=O)O)C1CCCCC1; Nphe = O=C(O)CNCc1ccccc1; Pth = not defined here; pal = not defined here; Tfa = O=C(C(F)(F)F)*; βAla = NCCC(=O)O; tBu = CC(C)(C)*
# B1: Ac-F(pNH2)-Chg-R-(Bzl)G-G-OH (peptide)
# peptide: Ac-[Phe(4-NH2)][Chg]R[Nphe]G-OH
# SMILES: CC(=O)N[C@@H](Cc1ccc(N)cc1)C(=O)N[C@H](C(=O)N[C@@H](CCCNC(=N)N)C(=O)N(CC(=O)NCC(=O)O)Cc1ccccc1)C1CCCCC1
# B2: Ac-Y-I-R-L-P-NH2 (peptide)
# peptide: Ac-YIRLP-NH2
# B3: Ac-Y-I-R-{ψ(COCH2)}-G-P-NH2 (peptide)
# peptide: Ac-YIRGP-NH2
# modifications: also: pseudo peptide bond ψ(COCH2) between R3 and G4
# B4: f-I-R-I-P-NH2 (peptide)
# peptide: [dF]IRIP-NH2
# modifications: N-terminus assumed
# SMILES: CC[C@H](C)[C@H](NC(=O)[C@H](N)Cc1ccccc1)C(=O)N[C@@H](CCCNC(=N)N)C(=O)N[C@H](C(=O)N1CCC[C@H]1C(N)=O)[C@@H](C)CC
# B5: Ac-Y-I-R-I-P (peptide)
# peptide: Ac-YIRIP
# B6: Y-I-R-L-a-NH2 (peptide)
# peptide: YIRL[dA]-NH2
# modifications: N-terminus assumed
# SMILES: CC[C@H](C)[C@H](NC(=O)[C@@H](N)Cc1ccc(O)cc1)C(=O)N[C@@H](CCCNC(=N)N)C(=O)N[C@@H](CC(C)C)C(=O)N[C@H](C)C(N)=O
# B7: Y-I-R-L-A-NH2 (peptide)
# peptide: YIRLA-NH2
# B8: f(pF)-I-R-L-P-NH2 (peptide)
# peptide: [dPhe(4-F)]IRLP-NH2
# modifications: N-terminus assumed
# SMILES: CC[C@H](C)[C@H](NC(=O)[C@H](N)Cc1ccc(F)cc1)C(=O)N[C@@H](CCCNC(=N)N)C(=O)N[C@@H](CC(C)C)C(=O)N1CCC[C@H]1C(N)=O
# B9: Ac-Y-I-R-L-A (peptide)
# peptide: Ac-YIRLA
# notes: printed without -NH2
# B10: Ac-y-I-R-L-A (peptide)
# peptide: Ac-[dY]IRLA
# B11: N-morpholinyl-CO-F-I-R-L-P-NH2 (peptide)
# peptide: {N‑morpholinyl‑CO}-FIRLP-NH2
# B12: Y-I-R-G-A-NH2 (peptide)
# peptide: YIRGA-NH2
# B13: (Me)y-I-R-L-A-NH2 (peptide)
# peptide: [dNMeY]IRLA-NH2
# modifications: N-terminus assumed
# SMILES: CC[C@H](C)[C@H](NC(=O)[C@@H](Cc1ccc(O)cc1)NC)C(=O)N[C@@H](CCCNC(=N)N)C(=O)N[C@@H](CC(C)C)C(=O)N[C@@H](C)C(N)=O
# B14: Ac-f(pF)-I-R-L-P-NH2 (peptide)
# peptide: Ac-[dPhe(4-F)]IRLP-NH2
# SMILES: CC[C@H](C)[C@H](NC(=O)[C@@H](Cc1ccc(F)cc1)NC(C)=O)C(=O)N[C@@H](CCCNC(=N)N)C(=O)N[C@@H](CC(C)C)C(=O)N1CCC[C@H]1C(N)=O
# B15: Y-I-R-I-Y-NH2 (peptide)
# peptide: YIRIY-NH2
# B16: y-I-R(COCH2)-G-P-NH2 (peptide)
# peptide: [dY]IRGP-NH2
# modifications: also: R3-G4 (COCH2) bond replaces peptide bond
# B17: f-I-R-F-P-NH2 (peptide)
# peptide: [dF]IRFP-NH2
# modifications: N-terminus assumed
# SMILES: CC[C@H](C)[C@H](NC(=O)[C@H](N)Cc1ccccc1)C(=O)N[C@@H](CCCNC(=N)N)C(=O)N[C@@H](Cc1ccccc1)C(=O)N1CCC[C@H]1C(N)=O
# B18: Ac-Y-N-R-L-P-NH2 (peptide)
# peptide: Ac-YNRLP-NH2
# B19: y-I-R-L-A-NH2 (peptide)
# peptide: [dY]IRLA-NH2
# modifications: N-terminus assumed
# SMILES: CC[C@H](C)[C@H](NC(=O)[C@H](N)Cc1ccc(O)cc1)C(=O)N[C@@H](CCCNC(=N)N)C(=O)N[C@@H](CC(C)C)C(=O)N[C@@H](C)C(N)=O
# B20: Ac-E-Y-I-R-L-K-NH2** (peptide)
# peptide: Ac-EYIRLK-NH2
# modifications: lactam 1-6
# SMILES: CC[C@H](C)[C@@H]1NC(=O)[C@H](Cc2ccc(O)cc2)NC(=O)[C@@H](NC(C)=O)CCC(=O)NCCCC[C@@H](C(N)=O)NC(=O)[C@H](CC(C)C)NC(=O)[C@H](CCCNC(=N)N)NC1=O
# notes: underlining that marks the cyclized portion is lost in the text
# B21: Ac-E-Y-I-R-L-P-K-NH2 (peptide)
# peptide: Ac-EYIRLPK-NH2
# modifications: also: cyclisation unknown (underlining lost)
# notes: may be cyclic; underlining lost
# B22: F(pNO2)-I-R-L-A-NH2 (peptide)
# peptide: [Phe(4-NO2)]IRLA-NH2
# modifications: N-terminus assumed
# SMILES: CC[C@H](C)[C@H](NC(=O)[C@@H](N)Cc1ccc([N+](=O)[O-])cc1)C(=O)N[C@@H](CCCNC(=N)N)C(=O)N[C@@H](CC(C)C)C(=O)N[C@@H](C)C(N)=O
# B23: Tyr(Me)-I-R-L-A-NH2 (peptide)
# peptide: [Tyr(Me)]IRLA-NH2
# modifications: N-terminus assumed
# SMILES: CC[C@H](C)[C@H](NC(=O)[C@@H](N)Cc1ccc(OC)cc1)C(=O)N[C@@H](CCCNC(=N)N)C(=O)N[C@@H](CC(C)C)C(=O)N[C@@H](C)C(N)=O
# B24: pal-C(SBut)-R-L-P-NH2 (peptide)
# peptide: [pal]C(tBu)RLP-NH2
# modifications: reading uncertain; also: pyridylalanine ring position not given here, printed as pal-C(SBut)-R—L—P—NH2
# B25: Nal(2)-I-R-C(Me)-P-NH2 (peptide)
# peptide: [2Nal]IR[Cys(Me)]P-NH2
# modifications: N-terminus assumed
# SMILES: CC[C@H](C)[C@H](NC(=O)[C@@H](N)Cc1ccc2ccccc2c1)C(=O)N[C@@H](CCCNC(=N)N)C(=O)N[C@@H](CSC)C(=O)N1CCC[C@H]1C(N)=O
# B26: pal-I-R-C(SBut)-P-NH2 (peptide)
# peptide: [pal]IRC(tBu)P-NH2
# modifications: reading uncertain; also: pyridylalanine ring position not given here, printed as pal-I-R-C(SBut)-P-NH2
# B27: Tfa-(Me)Y-I-R-L-A-NH2 (peptide)
# peptide: Tfa-[NMeY]IRLA-NH2
# SMILES: CC[C@H](C)[C@H](NC(=O)[C@H](Cc1ccc(O)cc1)N(C)C(=O)C(F)(F)F)C(=O)N[C@@H](CCCNC(=N)N)C(=O)N[C@@H](CC(C)C)C(=O)N[C@@H](C)C(N)=O
# B28: Ac-F(pCONH2)-I-R-L-P-NH2 (peptide)
# peptide: Ac-[Phe(4-CONH2)]IRLP-NH2
# SMILES: CC[C@H](C)[C@H](NC(=O)[C@H](Cc1ccc(C(N)=O)cc1)NC(C)=O)C(=O)N[C@@H](CCCNC(=N)N)C(=O)N[C@@H](CC(C)C)C(=O)N1CCC[C@H]1C(N)=O
# B29: Ac-F(pNH2)-I-R-L-P-NH2 (peptide)
# peptide: Ac-[Phe(4-NH2)]IRLP-NH2
# SMILES: CC[C@H](C)[C@H](NC(=O)[C@H](Cc1ccc(N)cc1)NC(C)=O)C(=O)N[C@@H](CCCNC(=N)N)C(=O)N[C@@H](CC(C)C)C(=O)N1CCC[C@H]1C(N)=O
# B30: Ac-F(pCN)-I-R-L-P-NH2 (peptide)
# peptide: Ac-[Phe(4-CN)]IRLP-NH2
# SMILES: CC[C@H](C)[C@H](NC(=O)[C@H](Cc1ccc(C#N)cc1)NC(C)=O)C(=O)N[C@@H](CCCNC(=N)N)C(=O)N[C@@H](CC(C)C)C(=O)N1CCC[C@H]1C(N)=O
# B31: Ac-βAla-Y-I-R-L-G-NH2 (peptide)
# peptide: Ac-[βAla]YIRLG-NH2
# SMILES: CC[C@H](C)[C@H](NC(=O)[C@H](Cc1ccc(O)cc1)NC(=O)CCNC(C)=O)C(=O)N[C@@H](CCCNC(=N)N)C(=O)N[C@@H](CC(C)C)C(=O)NCC(N)=O
# B32: Pth-Y-I-R-L-P-NH2 (peptide)
# peptide: Pth-YIRLP-NH2
# modifications: reading uncertain; also: printed as Pth-Y-I-R-L-P-NH2
# B33: Ac-F(pF)-I-R-L-P-NH2 (peptide)
# peptide: Ac-[Phe(4-F)]IRLP-NH2
# SMILES: CC[C@H](C)[C@H](NC(=O)[C@H](Cc1ccc(F)cc1)NC(C)=O)C(=O)N[C@@H](CCCNC(=N)N)C(=O)N[C@@H](CC(C)C)C(=O)N1CCC[C@H]1C(N)=O
# B34: Ac-(trans-CH3-CH═C(CH3)-CH2)Y-I-R-L-P-NH2 (peptide)
# peptide: XIRLP
# modifications: N-term Ac; N-(trans-CH3-CH═C(CH3)-CH2) on Y1; C-term NH2
# B35: Ac-(Me)Y-I-R-L-P-NH2 (peptide)
# peptide: XIRLP
# modifications: N-term Ac; N-(Me) on Y1; C-term NH2
# B36: Ac-Tyr(3,5-NO2)-I-R-L-P-NH2 (peptide)
# peptide: XIRLP
# modifications: N-term Ac; Y1=Tyr(3,5-NO2); C-term NH2
# Target: human factor Xa (Enzyme Research Laboratories, Inc.) (human, UniProt P00742 41-179; P00742 235-488, limits assumed)
# Sequence (P00742 41-179 limits assumed, chain 1 of 2): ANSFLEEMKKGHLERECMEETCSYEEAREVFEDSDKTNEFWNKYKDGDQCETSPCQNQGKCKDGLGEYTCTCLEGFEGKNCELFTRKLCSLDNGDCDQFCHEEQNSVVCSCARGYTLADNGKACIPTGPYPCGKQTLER
# Sequence (P00742 235-488 limits assumed, chain 2 of 2): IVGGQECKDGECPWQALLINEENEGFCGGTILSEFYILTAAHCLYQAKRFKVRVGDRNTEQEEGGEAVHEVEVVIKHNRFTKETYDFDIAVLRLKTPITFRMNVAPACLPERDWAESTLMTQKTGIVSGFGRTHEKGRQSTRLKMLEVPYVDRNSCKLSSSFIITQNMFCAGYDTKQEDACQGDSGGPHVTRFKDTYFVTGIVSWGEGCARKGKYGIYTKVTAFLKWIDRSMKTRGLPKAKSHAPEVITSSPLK
# Experiment: chromogenic FXa inhibition
# Experimental: TBS-P buffer (50 mM Tris-Cl, pH 7.8, 200 mM NaCl, 0.05% (w/v) PEG-8000, 0.02% (w/v) NaN_3) was used for this assay. The IC$50$ was determined by combining in appropriate wells of a Costar half-area microtiter plate 25 μl human factor Xa (Enzyme Research Laboratories, Inc.; South Bend Ind.) in TBS-P; 40 μl 10% (v/v) DMSO in TBS-P (uninhibited control) or various concentrations of a peptide to be tested diluted in 10% (v/v) DMSO in TBS-P; and substrate S-2765 (Nα-benzyloxycarbonyl-D-Arg-Gly-L-Arg-p-nitroanilide; Kabi Pharmacia, Inc.; Franklin Ohio) in TBS-P.
# The assays were performed by pre-incubating the peptide inhibitor plus enzyme for 10 min, then the assay was initiated by adding substrate to obtain a final volume of 100 μl. The initial velocity of chromogenic substrate hydrolysis was measured by the change in absorbance at 405 nm using a Bio-tek Instruments kinetic plate reader (Ceres UV900HDi) at 25° C. during the linear portion of the time course (usually 1–5 min after addition of substrate). The concentration of inhibitor that caused a 50% decrease in the rate of substrate hydrolysis was predicted by linear regression after plotting the relative rates of hydrolysis (compared to the uninhibited control) versus the log of the peptide concentration. The enzyme concentration was 0.5 nM and substrate concentration was 140 μM.
row,Binder,Ki [µM]
1,B1,< 100
2,B2,< 100
3,B3,< 100
4,B4,< 100
5,B5,< 100
6,B6,< 100
7,B7,< 100
8,B8,< 100
9,B9,< 100
10,B10,< 100
11,B11,< 100
12,B12,< 100
13,B13,< 100
14,B14,< 100
15,B15,< 100
16,B16,< 100
17,B17,< 100
18,B18,< 100

row,Binder,Ki [µM]
1,B19,< 100
2,B20,< 100
3,B21,< 100
4,B22,< 100
5,B23,< 100
6,B24,< 100
7,B25,< 100
8,B26,< 100
9,B27,< 100
10,B28,< 100
11,B29,< 100
12,B30,< 100
13,B31,< 100
14,B32,< 100
15,B33,< 100
16,B34,< 100
17,B35,< 100
18,B36,< 100

# From US6759384 (AVENTIS PHARMACEUTICALS, dated 2004)
